B1: C5^V27 (VHH)
VHH: EVQLVESGGGVVQPGGSLKLSCVASGADFSINYIRWYRQAPGKQREFVAGFTATGNTNYADSMKGRFTISRDNTKNAVYLQIDSLKPEDTAVYYCYMLDKWGQGTQVTVSS
B2: C5-siSOD1m (VHH)
VHH: EVQLVESGGGVVQPGGSLKLSCVASGTDFSINFIRWYRQAPGKQREFVAGFTATGNTNYADSMKGRFTISRDNTKNAVYLQIDSLKPEDTAVYYCYMLDKWGQGTQVTVSS
modifications: chain 1 pos 125: Gln of the LQR Q-tag carrying the transglutaminase-installed azido linker clicked to the 3' end of the sense strand of the chemically modified siSOD1m duplex (SEQ ID NOs 465/466, no 5'VP), written Q
notes: Member of the group m173; siRNA without 5'VP, so not the same as m166
B3: C5-Thiol-Mal-siSOD1m (VHH)
VHH: EVQLVESGGGVVQPGGSLKLSCVASGTDFSINFIRWYRQAPGKQREFVAGFTATGNTNYADSMKGRFTISRDNTKNAVYLQIDSLKPEDTAVYYCYMLDKWGQGTQVTVSS
modifications: chain 1 pos 117: free Cys of the tag coupled by thiol-maleimide chemistry to the maleimide-functionalised siSOD1m duplex (SEQ ID NOs 465/466), written C
notes: Member of the group m173; also called VHH-thiol-Mal-siSOD1m wherein VHH is C5
B4: VHH A4 (C5^V4) (VHH)
VHH: EVQLVESGGGVVQPGGSLKLSCVASGTDFSINFIRWYRQAPGKQREFVAGFTATGATNYADSMKGRFTISRDNTKNAVYLQIDSLKPEDTAVYYCYMLDKWGQGTQVTVSS
B5: C5^V29 (VHH)
VHH: EVQLVESGGGVVQPGGSLKLSCVASGADFSINFIRWYRQAPGKQREFVAGFTATGHTNYADSMKGRFTISRDNTKNAVYLQIDSLKPEDTAVYYCYMLDKWGQGTQVTVSS
B6: VHH A9 (C5^V9) (VHH)
VHH: EVQLVESGGGVVQPGGSLKLSCVASGTDFSINFIRWYRQAPGKQREFVAGFTATGNTNYADSMKGRFTISRDNTKNAVYLQIDSLKPEDTAVYYCYMLDAWGQGTQVTVSS
B7: VHH A11 (C5^V11) (VHH)
VHH: EVQLVESGGGVVQPGGSLKLSCVASGTDFSINYIRWYRQAPGKQREFVAGFTATGNTNYADSMKGRFTISRDNTKNAVYLQIDSLKPEDTAVYYCYMLDKWGQGTQVTVSS
B8: VHH A3 (C5^V3) (VHH)
VHH: EVQLVESGGGVVQPGGSLKLSCVASGTDFSINFIRWYRQAPGKQREFVAGFTAAGNTNYADSMKGRFTISRDNTKNAVYLQIDSLKPEDTAVYYCYMLDKWGQGTQVTVSS
B9: VHH A2 (C5^V2) (VHH)
VHH: EVQLVESGGGVVQPGGSLKLSCVASGTAFSINFIRWYRQAPGKQREFVAGFTATGNTNYADSMKGRFTISRDNTKNAVYLQIDSLKPEDTAVYYCYMLDKWGQGTQVTVSS
B10: VHH A15 (C5^V15) (VHH)
VHH: EVQLVESGGGVVQPGGSLKLSCVASGTDFSINFIRWYRQAPGKQREFVAGFTATGNTNYADSMKGRFTISRDNTKNAVYLQIDSLKPEDTAVYYCFMLDKWGQGTQVTVSS
B11: B8^V3 (VHH)
VHH: EVQLVESGGGVVQPGGSLRLSCAASGEIFSINFMRWYREAPGKQREWVAGFTRDGSTNYPDSAKGRFTISRDNAKNTVYLQIDSLKPEDTAVYYCYMLDTWGQGTQVTVSS
B12: B8h1-siSOD1m (VHH)
VHH: EVQLVESGGGVVQPGGSLRLSCAASGEIFSINFMRWYRQAPGKGLEWVAGFTRDGSTNYPDSVKGRFTISRDNAKNTVYLQMNSLRPEDTAVYYCYMLDTWGQGTQVTVSS
modifications: chain 1 pos 125: Gln of the LQR Q-tag carrying the transglutaminase-installed azido linker clicked to the 3' end of the sense strand of the chemically modified siSOD1m duplex (SEQ ID NOs 465/466), written Q
notes: Member of the group m173
B13: B8-siSOD1m (VHH)
VHH: EVQLVESGGGVVQPGGSLRLSCAASGEIFSINFMRWYRQAPGKQREWVAGFTRDGSTNYPDSAKGRFTISRDNAKNTVYLQIDSLKPEDTAVYYCYMLDTWGQGTQVTVSS
modifications: conjugated to the siSOD1m siRNA duplex through a linker; site and tag not given for this conjugate ; VHH conjugated through a C-terminal tag and a stable click linker to the 3' end of the sense strand of the siSOD1m siRNA duplex (SEQ ID NO 465/466). The letters cannot carry this.
notes: Member of the group m173; not shown: C-terminal tag/linker that carries the siRNA
B14: C10a (VHH)
VHH: EVQLVESGGGLVQAGDSLRLSCAASGFASHLYAIGWFRQAPGKEREKVSCISSNDGSTYYADSVKGRFTISRDTVKDMVYLQMNSLKPEDTAVYYCATDLTVHCFMAEYDWWGQGTQVTVSS
B15: H1 (VHH)
VHH: EVQLVESGGGLVQPGGSLRLSCAASGFASHLYAIGWFRQAPGKEREKVSCISSNDGSTYYADSVKGRFTISRDTVKDMVYLQMNSLKPEDTAVYYCATDLTVHCFMAEYDWWGQGTQVTVSS
notes: also called phage-H1 (as tracer)

What was measured:
[1] = biological target: T1, human transferrin receptor (hTfR) fused to EGFP, on CHO cells (human, UniProt P02786 1-760); assay: apparent Kd, flow cytometry, CHO cells
T1 construct: whole, on cells; also called human TfR; CHO-hTfR-EGFP; not shown: EGFP from pEGFP-C1 vector, fused to the N-terminal (intracellular) end of hTfR
T1 sequence (P02786 whole entry, the tested form may be a part): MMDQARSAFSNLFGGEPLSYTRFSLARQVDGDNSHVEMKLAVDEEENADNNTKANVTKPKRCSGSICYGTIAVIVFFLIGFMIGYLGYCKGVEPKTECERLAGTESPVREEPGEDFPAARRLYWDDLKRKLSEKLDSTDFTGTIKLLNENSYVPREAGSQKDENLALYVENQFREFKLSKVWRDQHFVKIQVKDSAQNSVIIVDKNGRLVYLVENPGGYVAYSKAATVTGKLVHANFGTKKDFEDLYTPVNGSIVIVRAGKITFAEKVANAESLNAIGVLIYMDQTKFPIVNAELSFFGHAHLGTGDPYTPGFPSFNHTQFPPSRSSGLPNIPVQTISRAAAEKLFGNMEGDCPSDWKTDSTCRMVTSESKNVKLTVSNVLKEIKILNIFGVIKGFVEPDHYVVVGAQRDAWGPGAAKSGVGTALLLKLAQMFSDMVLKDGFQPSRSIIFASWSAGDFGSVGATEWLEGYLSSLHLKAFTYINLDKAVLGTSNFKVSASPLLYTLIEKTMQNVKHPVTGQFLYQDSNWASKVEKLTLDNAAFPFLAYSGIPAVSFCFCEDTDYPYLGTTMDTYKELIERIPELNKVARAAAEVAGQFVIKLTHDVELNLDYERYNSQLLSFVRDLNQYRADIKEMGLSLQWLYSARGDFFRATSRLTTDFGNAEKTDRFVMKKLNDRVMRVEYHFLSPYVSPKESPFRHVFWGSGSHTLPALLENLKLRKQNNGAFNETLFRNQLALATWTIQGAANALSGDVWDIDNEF
In short: (§1)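 CHO cells expressing TfR-EGFP fusions, blocked in PBS/BSA 2%, then incubated with increasing VHH concentrations for 1 hr at 4° C. Bound VHH detected via anti-6His antibody and Alexa647 secondary, cells PFA-fixed, read by flow cytometry. Apparent Kd from nonlinear fit.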

[2] = biological target: T2, rhesus monkey transferrin receptor (rhTfR) fused to EGFP, on CHO cells (rhesus monkey); assay: apparent Kd, flow cytometry, CHO cells
T2 construct: whole, on cells; also called rhesus monkey TfR
In short: as §1

[3] = biological target: T3, mouse transferrin receptor (mTfR) fused to EGFP, on CHO cells (mouse, UniProt Q62351 1-763); assay: apparent Kd, flow cytometry, CHO cells
T3 construct: whole, on cells; also called mouse TfR; CHO-mTfR-EGFP; not shown: EGFP
T3 sequence (Q62351 whole entry, the tested form may be a part): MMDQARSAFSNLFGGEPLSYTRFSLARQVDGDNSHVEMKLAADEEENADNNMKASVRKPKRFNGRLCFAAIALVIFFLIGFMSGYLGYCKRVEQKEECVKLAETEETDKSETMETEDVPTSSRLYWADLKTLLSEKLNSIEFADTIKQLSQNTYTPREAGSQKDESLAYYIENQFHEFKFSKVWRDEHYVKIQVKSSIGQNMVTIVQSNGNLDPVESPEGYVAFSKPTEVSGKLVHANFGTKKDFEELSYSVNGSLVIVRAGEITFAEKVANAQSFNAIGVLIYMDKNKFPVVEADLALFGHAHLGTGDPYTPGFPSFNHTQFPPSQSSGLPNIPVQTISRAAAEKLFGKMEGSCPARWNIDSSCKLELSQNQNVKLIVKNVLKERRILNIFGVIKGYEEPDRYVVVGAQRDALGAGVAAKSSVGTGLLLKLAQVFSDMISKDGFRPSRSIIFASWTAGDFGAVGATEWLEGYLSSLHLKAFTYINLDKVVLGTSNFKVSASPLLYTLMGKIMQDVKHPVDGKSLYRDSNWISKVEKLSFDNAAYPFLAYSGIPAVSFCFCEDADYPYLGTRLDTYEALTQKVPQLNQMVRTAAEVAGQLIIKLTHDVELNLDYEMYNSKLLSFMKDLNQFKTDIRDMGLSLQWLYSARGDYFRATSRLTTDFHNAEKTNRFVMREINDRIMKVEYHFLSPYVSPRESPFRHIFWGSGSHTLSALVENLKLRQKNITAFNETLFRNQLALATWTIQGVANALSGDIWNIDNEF
In short: as §1

[4] = biological target: T4, mouse TfR ectodomain fused to a mouse IgG1 Fc fragment (mouse, UniProt Q62351 89-763); assay: SPR, kinetic
T4 construct: extracellular domain; not shown: mouse IgG1 Fc fragment
T4 sequence (Q62351 89-763): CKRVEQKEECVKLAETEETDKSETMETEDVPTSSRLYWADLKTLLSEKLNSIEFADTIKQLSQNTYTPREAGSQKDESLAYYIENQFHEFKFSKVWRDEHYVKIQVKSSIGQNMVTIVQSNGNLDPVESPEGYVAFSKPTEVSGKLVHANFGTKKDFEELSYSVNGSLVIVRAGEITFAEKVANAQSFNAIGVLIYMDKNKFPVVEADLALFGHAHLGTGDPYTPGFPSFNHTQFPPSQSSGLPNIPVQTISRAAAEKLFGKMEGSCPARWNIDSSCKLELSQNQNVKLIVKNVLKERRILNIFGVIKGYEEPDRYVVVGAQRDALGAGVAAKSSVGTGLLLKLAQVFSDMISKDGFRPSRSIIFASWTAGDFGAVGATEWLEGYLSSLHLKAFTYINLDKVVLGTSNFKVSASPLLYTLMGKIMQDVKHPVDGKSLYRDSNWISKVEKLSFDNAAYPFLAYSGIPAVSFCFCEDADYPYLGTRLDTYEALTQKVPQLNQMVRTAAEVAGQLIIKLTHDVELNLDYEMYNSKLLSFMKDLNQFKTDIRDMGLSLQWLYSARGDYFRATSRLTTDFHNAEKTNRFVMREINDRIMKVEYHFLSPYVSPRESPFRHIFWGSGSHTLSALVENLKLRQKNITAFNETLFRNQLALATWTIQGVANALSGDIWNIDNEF
In short: (§2)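 TfR–mouse Fc fusions, produced in-house, captured on HC 1500M or CM5 chips either directly or via immobilized anti-mouse IgG. VHHs injected in single-cycle or multiple-cycle kinetic mode on Biacore T200.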

[5] = biological target: T5, rhesus monkey TfR ectodomain fused to a mouse IgG1 Fc fragment (rhesus monkey, UniProt I0FKY7 89-760); assay: SPR, kinetic
T5 construct: extracellular domain; not shown: mouse IgG1 Fc fragment
In short: as §2

[6] = biological target: T4, mouse TfR ectodomain fused to a mouse …; assay: SPR, at equilibrium
In short: as §2

[7] = biological target: T6, murine TfR expressed by murine neuroblastoma Neuro-2a cells (mouse, UniProt Q62351 1-763); assay: competition with the fluorescent reference VHH on Neuro-2a cells as in FIG. 25; Ki/app on mTfR
T6 construct: whole, on cells; also called mTfR (N2a cells)
T6 sequence (Q62351 whole entry): as the sequence (Q62351 whole entry, the tested form may be a part) above
Protocol: The binding of VHH-Oligo and VHH-hFc-Oligo conjugates to mTfR was evaluated using a competition assay on living cells expressing the receptor of interest, namely murine neuroblastoma Neuro-2a cells (N2a). N2a cells were grown in Dulbecco's Modified Eagle Medium (DMEM) GlutaMAX supplemented with 10% v/v FBS in 5% CO₂ at 37° C. Cells were seeded two days before experiments in 96-well plates at a density of 50.000 cells/well. […] Resuspended cells were transferred in a 96-deepwell plate (V-bottom) containing 1% fetal bovine serum (FBS)/0.02% sodium azide in phosphate-buffered saline (PBS) and then centrifuged for 5 min at 2000 rpm at 4° C. After removing the supernatant, 5 mM EDTA in D-PBS and 4% paraformaldehyde (PFA) (v/v 1:1) were added into wells to fix cells for 15 min at room temperature. PFA was removed by centrifugation (5 min, 3000 rpm, 4° C.) and cells were resuspended with 5 mM EDTA in D-PBS. Then the cellular A680-associated fluorescence signal was quantified using an Attune™ NxT flow cytometer (Thermo Fisher Scientific) equipped with Attune™ NxT v3.1.2. Experimental data (experimental triplicates) were fitted with GraphPad Prism® software using a nonlinear fit to determine the apparent Ki inhibition constants.

[8] = biological target: T7, human TfR ectodomain fused to a mouse IgG1 Fc fragment (human, UniProt P02786 89-760); assay: SPR, kinetic
T7 construct: extracellular domain; ectodomain fused to the N-terminal end of the Fc, made in-house; not shown: mouse IgG1 Fc fragment
T7 sequence (P02786 89-760): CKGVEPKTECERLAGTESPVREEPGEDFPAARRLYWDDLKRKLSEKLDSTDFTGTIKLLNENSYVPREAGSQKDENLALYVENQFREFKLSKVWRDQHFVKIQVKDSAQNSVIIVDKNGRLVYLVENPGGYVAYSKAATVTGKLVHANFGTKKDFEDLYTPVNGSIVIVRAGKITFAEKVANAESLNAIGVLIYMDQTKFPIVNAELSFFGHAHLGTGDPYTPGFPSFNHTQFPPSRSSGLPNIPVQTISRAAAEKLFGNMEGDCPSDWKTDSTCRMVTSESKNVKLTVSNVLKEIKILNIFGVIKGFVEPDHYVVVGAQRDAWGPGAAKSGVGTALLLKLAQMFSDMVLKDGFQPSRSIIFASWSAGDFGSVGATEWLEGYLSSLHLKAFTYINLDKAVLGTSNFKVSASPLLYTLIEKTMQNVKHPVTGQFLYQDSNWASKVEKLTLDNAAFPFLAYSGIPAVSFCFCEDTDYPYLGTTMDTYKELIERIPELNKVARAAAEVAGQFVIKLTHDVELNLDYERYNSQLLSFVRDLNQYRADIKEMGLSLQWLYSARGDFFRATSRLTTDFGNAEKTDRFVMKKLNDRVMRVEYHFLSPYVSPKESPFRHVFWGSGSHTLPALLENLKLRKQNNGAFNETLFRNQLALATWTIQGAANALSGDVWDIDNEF
In short: as §2

[9] = biological target: T3, mouse transferrin receptor (mTfR) fused …; assay: flow cytometry, CHO cells
Protocol: The binding properties of VHHs with affinity for the TfR from different species (i.e., human (h), mouse (m) and rhesus monkey (rh)) were tested using flow cytometry, and apparent affinities (Kd app) were determined. All experiments were performed in 96 well plates using 2×10⁵ cells/well, at 4° C. with shaking. CHO cell lines expressing the hTfR, mTfR or rhTfR fused to EGFP were saturated with PBS/BSA 2% solution during 30 min to avoid nonspecific binding, followed by incubation with purified VHHs at increasing concentrations for 1 hr. After one wash in PBS/BSA 2%, cells were incubated for 1 hr with an anti-6His tag antibody (mouse), washed twice with PBS/BSA 2%, and incubated for 1 hr with an Alexa647-conjugated anti-mouse secondary antibody. After two last washes in PBS/BSA 2%, cells were fixed by incubation for 15 min with PBS/PFA 2%, washed once with PBS and finally resuspended in PBS. Fluorescence levels were assessed using an Attune NxT flow cytometer (Thermo Fisher Scientific). Experimental data were fitted with GraphPad Prism® software using a nonlinear fit to determine the apparent Kd constants. […] Table 5 hereafter summarizes apparent Kd obtained for the tested VHHs.

[10] = biological target: T7, human TfR ectodomain fused to a mouse …; assay: SPR, at equilibrium
In short: as §2

[11] = biological target: T5, rhesus monkey TfR ectodomain fused to a …; assay: SPR, at equilibrium
In short: as §2

Binder | Kd [1] [nM] | Kd [2] [nM] | Kd [3] [nM] | Kd [4] [nM] | koff [4] [s⁻¹] | kon [4] [M⁻¹ s⁻¹] | Kd [5] [nM] | koff [5] [s⁻¹] | kon [5] [M⁻¹ s⁻¹] | Kd [6] [nM] | Ki [7] [nM] | Kd [8] [nM] | koff [8] [s⁻¹] | kon [8] [M⁻¹ s⁻¹] | binding result [9] | Kd [10] [nM] | Kd [11] [nM]
B1 | 3.1 | 178 | 197 | 207 | 0.102 | 493000 | 83.9 | 0.0278 | 332000 | 379 | – | – | – | – | – | – | –
B2 | – | – | – | – | – | – | – | – | – | – | 161 | – | – | – | – | – | –
B3 | – | – | – | – | – | – | – | – | – | – | 164 | – | – | – | – | – | –
B4 | 3.1 | 3.4 | 179 | 89.7 | 0.0532 | 652000 | – | – | – | 91.8 | – | – | – | – | – | – | –
B5 | 2.9 | 66 | 207 | 143 | 0.0675 | 472000 | – | – | – | 240 | – | 0.846 | 0.000982 | 1.17e+06 | – | – | –
B6 | 3.4 | 4.6 | 47 | 40.8 | 0.0197 | 524000 | – | – | – | 40.5 | – | – | – | – | – | – | –
B7 | 3.4 | 20 | 197 | 61.3 | 0.0218 | 355000 | – | – | – | 74.7 | – | 0.395 | 0.000311 | 790000 | – | – | –
B8 | – | 7 | 138 | 83.5 | 0.0467 | 647000 | – | – | – | 98.8 | – | – | – | – | – | – | –
B9 | 3.2 | 5.7 | 136 | 109 | 0.0579 | 583000 | – | – | – | 108 | – | – | – | – | – | – | –
B10 | 3.7 | 10 | 207 | 70.6 | 0.0563 | 797000 | – | – | – | 61.1 | – | 0.252 | 0.000176 | 700000 | – | – | –
B11 | 36 | 19 | 52 | 193 | 0.0343 | 178000 | – | – | – | 206 | – | 0.505 | 3.38e-05 | 66900 | – | – | –
B12 | – | – | – | – | – | – | – | – | – | – | 76.1 | – | – | – | – | – | –
B13 | – | – | – | – | – | – | – | – | – | – | 48.8 | – | – | – | – | – | –
B14 | 4.1 | 3.2 | – | – | – | – | 24.6 | 0.0178 | 903000 | – | – | 44.6 | 0.00726 | 188000 | no binding | 86.8 | 38.1
B15 | 11 | 3.7 | – | – | – | – | 22.2 | 0.0109 | 662000 | – | – | 57.7 | 0.00554 | 108000 | no binding | 224 | 27.8

Reference: patent US20230414780A1 (VECT HORUS, published 2023)
